Assay results published in the supplement of paper PMC9170038.

Test system: MS2 coat protein
Assay: apparent KD of MS2 coat protein; designed switch direction (-1 OFF switch, 1 ON switch): -1; higher = weaker reporter binding
Procedure, shortened: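 On Illumina chips, designed RNA switches with common flanks were made by stalled E. coli RNA polymerase. Titrations with SNAP-549-labelled MS2 coat protein, doubling from 0.7 or 1.5 nM to 3 µM, were done with no input, with 200 uM small-molecule ligand, or with an oligonucleotide input. Apparent KD is the median per design over clusters, from curve fits of normalised cluster fluorescence.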

[1] = input ligand: microRNA oligo, concentration not stated
[2] = Eterna round: R95, input ligand: microRNA oligo, concentration not stated
[3] = Eterna round: R95, input ligand: FMN 200 uM
[4] = Eterna round: R95, input ligand: none

Sequence	apparent KD of MS2 coat protein (input ligand: FMN 200 uM) [nM]	apparent KD of MS2 coat protein [1] [nM]	apparent KD of MS2 coat protein (input ligand: none) [nM]	apparent KD of MS2 coat protein [2] [nM]	apparent KD of MS2 coat protein [3] [nM]	apparent KD of MS2 coat protein [4] [nM]
AUUAAAGACCGAGGAUAUCGAGGAAAUACACUGCGAGAAGGCGGGUACUCGGACGAUUCGACAUGAGGAUCACCCAUGUGCACA [Tixequ] (Eterna round: R96, puzzle: Exclusion NG 1)	26.7	18.9	25.3	–	–	–
UCUUAUUGCAAGGAUAUGCUUUUUAUUUCUUUUGCAGAAGGUGCAACAUGAGGAUCACCCAUGUUUCCGGGCAU [JR_E6_Sub035] (Eterna round: R96, puzzle: Exclusion 6)	34.4	16.4	21.5	–	–	–
AAUAACAGAGGAUAUACUGUUUUAUGUAUUUAUUAUUUUAAACAUGAGGAUCACCCAUGUAGAAGGCUGAAUAA [JMF 12] (puzzle: Exclusion 2)	–	–	–	19.1	–	–
UAUGUGUGAGGAUAUGGUAAAGAUAAGAUGAUGAAAGAACUCCAGAAGGCACAUGAGGAUCACCCAUGUAGAUG [JL-ex4-2.10 Jieux mod] (puzzle: Exclusion 4)	–	–	–	37.2	53.8	32.2
CUGGUCCGAGGAUAUAUUAAGUGAUACAUGAGGAUCACCCAUGUAAUUUGAUGGAAAUAAAUAGAAGGCGGACUAG [Mat - Exclusion 5 - JL mod - D44] (puzzle: Exclusion 5)	–	–	–	45.9	34.2	53.4
GAUGAGAGAGGAUAUACAUGAGGAUCACCCAUGUAAUUUUCGGACAUGGAAGCCUGAUGUAGAAGGCUCGCAUG [Usmaercele] (puzzle: Exclusion 3)	–	–	–	76.3	–	–
UUAAUUCGGAUUCUUGAAAUACAUGAGGAUCACCCAUGUUCACAGGAUAUUGAUUAAGUUAGUAACAAGAAGGGUGUAACAUAA [JR_ExcNG3_Sub035] (Eterna round: R96, puzzle: Exclusion NG 3)	57.8	17.6	22.9	–	–	–
UAAAAUUCGCGAGGAUAUGCGACCUAAUGGGAGGAUUGUCACAUGAGGAUCACCCAUGUCAGUCAGCAGAAGGCGCACCUGGUU [Anedmaon] (Eterna round: R96, puzzle: Exclusion NG 2)	628	116	99.6	–	–	–
CUCUUGGCAGGAUAUGCUCUUUUAGACAUGAGGAUCACCCAUGUGCUCAUUCCUUCUUUUGCAGAAGGGCCUUAAC [JR_E5_Sub048] (puzzle: Exclusion 5)	–	–	–	63.8	–	–
CCAGUGUAAGGAUAUCCGUUGCCGGAUAGAUGAUUAACAGCGGAGAAGGUACAUGAGGAUCACCCAUGUGUCCA [Eternabot (L1) Solution 8] (Eterna round: R97, puzzle: Exclusion 4)	30.9	–	20.9	–	–	–
AAUUUGCAAGCGAGAUCCCACAUGAGGAUCACCCAUGUGCUCGUCUUAUAAGGUACUGUGACGAUAGUCACGGUACC [Mat - Sensor, turn-off var - Eli Mod - D93] (Eterna round: R97, puzzle: Sensor, turn-off variant 1)	14.1	–	14.3	–	–	–
UAUUUAUAUGAAGGAUAUACUUAACAUGAGGAUCACCCAUGUGGUGUUGUGAGUGAGUGAGUUUAGUAGAAGGUCAAGUAUUUU [JMF's solution 53] (Eterna round: R96, puzzle: Exclusion NG 2)	844	378	456	–	–	–
AACCUGAGGCUUUGCUUUAGGUGUACAUGAGGAUCACCCAUGUAGGAUAUGGUAGGCUUUGCUUACCAGAAGGACAUUUAGGUU [JL ENG3 1.15] (Eterna round: R96, puzzle: Exclusion NG 3)	110	33.6	43	–	–	–
UGUACCAUAGGAUAUACAUGAGGAUCACCCAUGUUAAUACGAUAUGUAAUGGUUACUUGUAGAAGGAUGAAAAG [Eternabot (L1) Solution 29] (Eterna round: R97, puzzle: Exclusion 3)	14.9	–	11	–	–	–
AGGGUUUGAGGAUAUAUCUGGUGGGACAUGAGGAUCACCCAUGUUCAUGUCGUAUCCUCAGUAGAAGGCAGACAGG [Eternabot (Original) Solution 14] (Eterna round: R97, puzzle: Exclusion 5)	13.2	–	13.4	–	–	–
GUUAGUUAAGGAUAUACUGGGAGCUGCGGCGUCUCGCCGCAACAUGAGGAUCACCCAUGUAGAAGGUGACCGUU [JL ViennaUCT Enbibi mod 6] (puzzle: Exclusion 2)	–	–	–	283	–	–
ACAUGAGGAUCACCCAUGUCCGGCUGGUCCGUCUCGGCUGUCGAGGAUAUGGCUCGGUGUCCGCGCUAGAAGGUGGGAGCCGGA [Aenatbe mod 75] (Eterna round: R96, puzzle: Exclusion NG 3)	56.7	45.1	93.5	–	–	–

Sequence	apparent KD of MS2 coat protein (input ligand: FMN 200 uM) [nM]	apparent KD of MS2 coat protein [1] [nM]	apparent KD of MS2 coat protein (input ligand: none) [nM]	apparent KD of MS2 coat protein [2] [nM]	apparent KD of MS2 coat protein [3] [nM]	apparent KD of MS2 coat protein [4] [nM]
GAAGAAGAGAGAAAAGAAAACAUGAGGAUCACCCAUGUGAGAAGAUGAGGGUGAUACAGGCUAUAUGCUCGUCUUAU (puzzle: Sensor v3, turn-off variant 1)	–	–	–	28.8	247	295
UUUAGUAUCUAGGAUAUCUAGUACAUAGUAUCUAGAGAAGGAGAUACAUGAGGAUCACCCAUGUUCUGUGAUCU [Exclusion 6 - 2:b] (puzzle: Exclusion 6)	–	–	–	118	–	–
CAGGAUAGAGGAUAUACAUAGAUACAGAUUCAUGUGAUCCUACAUGAGGAUCACCCAUGUAGAAGGCUAUCCUG [Fiskers Ex 2 - 21] (Eterna round: R96, puzzle: Exclusion 2)	216	321	348	–	–	–
GGUGCGUUUGUGAGGAUAUGCUGGUCCUUGGAUCCGCAGAAGGCACAUGAGGAUCACCCAUGUGGUGUCGUACC [salish99_Bmod_Ex4_034] (puzzle: Brourd's mod of Exclusion 4)	–	–	–	199	–	–
GCCGAUUAAGUGAGGAUAUACCUAUGGAUACAUAGGUAGAAGGCACAUGAGGAUCACCCAUGUUCCUCAUCGGC [Fiskers BMX 4 - 11] (puzzle: Brourd's mod of Exclusion 4)	–	–	–	19.3	–	–
GGCACACAUGAGGAUCACCCAUGUGAGGAUAUGAGGCGAUCGUCGAAAGACGAUAGCCUCAGAAGGCACAUGCC [Eli x1 4.10] (Eterna round: R97, puzzle: Exclusion 1)	42.9	–	16	–	–	–
AACGACUGAGGAUAUACAUGAGGAUCACCCAUGUGUUGAAAUACGUGCUUGGUUAACUGUAGAAGGCAGAAAAU [Isxeen] (puzzle: Exclusion 3)	–	–	–	12.8	21.9	14
GGUUUACAAGGAUAUACAAAGGUCUUGUGAUCUGUGCGAGGACAUGAGGAUCACCCAUGUAGAAGGUGUCUGCU [Eternabot (L2) Solution 77] (Eterna round: R97, puzzle: Exclusion 2)	193	–	114	–	–	–
UACCUGAGGCAAAGCUUUAGGCUUACAUGAGGAUCACCCAUGUAGGAUAUGGUAGGCAAAGCUUACCAGAAGGACAUGGAAAUU [Mat - Exclusion NG 3 - Mod of JL - D23] (Eterna round: R96, puzzle: Exclusion NG 3)	398	68.1	86.8	–	–	–
GGUUCGAGAGUAAGGAUAUCGGUCUGCGCGAGUGACGAGAAGGUACAUGAGGAUCACCCAUGUCGAGGGAUCAC [Eternabot (L2) Solution 23] (Eterna round: R97, puzzle: Brourd's mod of Exclusion 4)	35.8	–	34.9	–	–	–
AGUACUAACACGUUAGUGUUAGUACAAUAAGCUUGUGAAACAUGAGGAUCACCCAUGUCCUCAUAAGCUCGUCUUAU [salish99_TOv2_r3_056] (Eterna round: R96, puzzle: Sensor v3, turn-off variant 2)	16	466	17.9	–	–	–
CUCUUGUUAGGAUAUCAAACCGGCAGCGGAGCCGCCGGAAGUGAGAAGGGACAUGAGGAUCACCCAUGUAAGAA [Quatdior] (puzzle: Exclusion 4)	–	–	–	58.9	–	–
GGAUCUUGGGUCAGGAUAUGCUGAUAUUUUUGUCAGCAGAAGGGACAUGAGGAUCACCCAUGUGCUUGGUUUUG [Magic-16] (puzzle: Brourd's mod of Exclusion 4)	–	–	–	12.6	–	–
GGAUAAAACUGAGGAUAUGCGUAUAGAUAGAGAGCAGAAGGCAGACAUGAGGAUCACCCAUGUGAGUUCUCGAUAAGAAACACG [Prohibition 58 - Jieux - Exclusion NG 1] (Eterna round: R96, puzzle: Exclusion NG 1)	118	36.1	35.2	–	–	–
UAGAAGCUCAGGGAGUGAGACAUGAGGAUCACCCAUGUGGUGGUAGGGAACAAGCUUUUUGCACGUACUUAUGAGGA [JR_SV3TOV1_Sub006] (puzzle: Sensor v3, turn-off variant 1)	–	–	–	134	367	189
UUCCUCGUUGUGAGGAUAUCGUCCUAUUUUUGUUACGAGAAGGCACAUGAGGAUCACCCAUGUUACUUGAUGUU [JR_BMOE4_Sub071] (Eterna round: R96, puzzle: Brourd's mod of Exclusion 4)	188	21.1	26	–	–	–
UAGGUACGAGGAUAUACAUAGAUACAGACACAUGUAGAUGUACAUGAGGAUCACCCAUGUAGAAGGCGUAUAUA [Mat - Same state - Mayanna Mod - D110] (Eterna round: R96, puzzle: Exclusion 2)	–	60.7	–	–	–	–
